Assay [1] deals with Cynomolgus monkey Ang2 C-terminal domain (Lys274-Phe495) (cynomolgus monkey). Nature of the assay: ForteBio BLI, antibody on AHQ sensor, 100 nM antigen, 1:1 model. Background: BLI is a label-free optical method that tracks binding on a fibre tip over time.
The target in assay [2] is recombinant biotinylated hAngiopoietin-2 protein (R&D, Cat. No.: BT623B/CF) (human) (UniProt O15123). Nature of the assay: ELISA: biotin Ang2 (R&D BT623B/CF) captured on coated streptavidin (SA), antibody titrated, anti-human IgG-HRP, OD450-OD620, GraphPad fit (fit of a flat control curve).
Chain of recombinant biotinylated hAngiopoietin-2 protein (R&D, Cat. No.: BT623B/CF) (human) (O15123 19-496 limits assumed): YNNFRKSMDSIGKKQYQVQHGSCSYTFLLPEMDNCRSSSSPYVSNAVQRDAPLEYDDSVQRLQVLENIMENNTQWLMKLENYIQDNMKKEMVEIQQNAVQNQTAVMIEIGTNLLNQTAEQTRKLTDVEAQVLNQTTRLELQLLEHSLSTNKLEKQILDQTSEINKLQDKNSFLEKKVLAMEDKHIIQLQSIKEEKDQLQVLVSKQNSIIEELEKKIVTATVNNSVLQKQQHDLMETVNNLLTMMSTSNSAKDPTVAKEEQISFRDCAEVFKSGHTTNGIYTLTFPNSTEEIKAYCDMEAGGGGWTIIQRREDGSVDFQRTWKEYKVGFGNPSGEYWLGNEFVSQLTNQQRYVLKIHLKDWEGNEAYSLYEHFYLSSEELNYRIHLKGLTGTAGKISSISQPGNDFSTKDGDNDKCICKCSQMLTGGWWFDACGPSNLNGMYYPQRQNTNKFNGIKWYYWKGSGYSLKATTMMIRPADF
Assay [3] has the same target. Nature of the assay: blocking ELISA: antibody titrated against biotinylated hAng2 (300 ng/ml final); blocked binding to coated hTie2 protein; Avidin-HRP detection (fit of a flat control curve). (In general: ELISA stands for enzyme-linked immunosorbent assay.)
The target is the same in assay [4]. Described as above. The source holds these as a separate data set.
In assay [5] the target is Human ang2 protein (Sino Biological, Cat No.: 10691-H08H) (human) (UniProt O15123). Nature of the assay: ELISA: human ang2 protein (Sino Biological 10691-H08H) coated at 0.25 ug/ml, antibody titrated, HRP-conjugated secondary antibody, OD450-OD620, GraphPad fit (fit of a flat control curve).
Chain of Human ang2 protein (Sino Biological, Cat No.: 10691-H08H) (human) (O15123 19-496 limits assumed): as above

The values that follow come from patent US20240239881A1.

Where two headings read alike, the source gives them in different places.

Chain of Cynomolgus monkey Ang2 C-terminal domain (Lys274-Phe495) (cynomolgus monkey) (chain, as listed by the source, form in doubt): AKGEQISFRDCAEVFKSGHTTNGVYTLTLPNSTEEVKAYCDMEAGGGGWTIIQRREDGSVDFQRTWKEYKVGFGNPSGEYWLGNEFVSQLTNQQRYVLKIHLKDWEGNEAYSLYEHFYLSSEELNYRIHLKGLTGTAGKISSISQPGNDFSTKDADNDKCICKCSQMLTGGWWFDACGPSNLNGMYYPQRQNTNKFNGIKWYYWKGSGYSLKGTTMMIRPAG

A word on the Kd: it is the equilibrium constant for the complex coming apart. Nesvacumab (Regeneron) (antibody): in assay [1], the Kd was determined as 1.04 nM.
Broadly, the EC50 is the concentration giving half of the maximal effect. Broadly, the IC50 is the concentration that inhibits the measured activity by half. With IgG (antibody), the figures for the 50% effective concentration (EC50) in assay [2] and in assay [5] were 0.00807 nM and 16.8 nM, respectively. The values for the IC50 in assay [3] and in assay [4] were 16.9 nM and 24.8 nM, respectively.
